Results as given in publication PMC4928587 (Molecular cancer research : MCR, 2009).

Molecular target: GST/BRCA1-1293–1863 (human, UniProt P38398 1293-1863)
Experiment: pull-down

Chain of GST/BRCA1-1293–1863 (P38398 1293-1863): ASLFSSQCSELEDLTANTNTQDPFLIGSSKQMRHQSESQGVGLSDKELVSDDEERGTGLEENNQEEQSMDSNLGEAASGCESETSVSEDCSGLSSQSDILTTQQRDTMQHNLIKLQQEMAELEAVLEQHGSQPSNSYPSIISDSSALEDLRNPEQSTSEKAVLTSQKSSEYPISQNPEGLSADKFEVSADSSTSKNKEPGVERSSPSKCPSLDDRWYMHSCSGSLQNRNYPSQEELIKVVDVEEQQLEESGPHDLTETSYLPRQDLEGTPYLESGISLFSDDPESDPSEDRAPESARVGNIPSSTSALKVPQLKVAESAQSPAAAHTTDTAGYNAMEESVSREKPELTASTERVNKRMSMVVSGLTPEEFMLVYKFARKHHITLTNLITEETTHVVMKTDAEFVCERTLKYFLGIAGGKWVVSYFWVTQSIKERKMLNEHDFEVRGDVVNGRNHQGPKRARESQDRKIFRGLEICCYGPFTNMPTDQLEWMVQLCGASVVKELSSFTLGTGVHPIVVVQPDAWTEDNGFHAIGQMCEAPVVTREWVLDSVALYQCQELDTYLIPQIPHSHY

- binding result: binds
B1: MBP/PALB2-1–70 (domain or fragment, human, UniProt Q86YC2 1-70, looked up)
chain: MDEPPGKPLSCEEKEKLKEKLAFLKREYSKTLARLQRAQRAEKIKHSIKKTVEEQDCLSQQDLSPQLKHS
